Results as given in patent publication US20110070246A1 (F HOFFMANN LAROCHE, published 2011).

T1: Soluble extracellular domain (ECD) of human CDCP1 (human, UniProt Q9H5V8 30-663)
T1 construct: also called CDCP1-ECD; hCDCP1-ECD
T1 sequence: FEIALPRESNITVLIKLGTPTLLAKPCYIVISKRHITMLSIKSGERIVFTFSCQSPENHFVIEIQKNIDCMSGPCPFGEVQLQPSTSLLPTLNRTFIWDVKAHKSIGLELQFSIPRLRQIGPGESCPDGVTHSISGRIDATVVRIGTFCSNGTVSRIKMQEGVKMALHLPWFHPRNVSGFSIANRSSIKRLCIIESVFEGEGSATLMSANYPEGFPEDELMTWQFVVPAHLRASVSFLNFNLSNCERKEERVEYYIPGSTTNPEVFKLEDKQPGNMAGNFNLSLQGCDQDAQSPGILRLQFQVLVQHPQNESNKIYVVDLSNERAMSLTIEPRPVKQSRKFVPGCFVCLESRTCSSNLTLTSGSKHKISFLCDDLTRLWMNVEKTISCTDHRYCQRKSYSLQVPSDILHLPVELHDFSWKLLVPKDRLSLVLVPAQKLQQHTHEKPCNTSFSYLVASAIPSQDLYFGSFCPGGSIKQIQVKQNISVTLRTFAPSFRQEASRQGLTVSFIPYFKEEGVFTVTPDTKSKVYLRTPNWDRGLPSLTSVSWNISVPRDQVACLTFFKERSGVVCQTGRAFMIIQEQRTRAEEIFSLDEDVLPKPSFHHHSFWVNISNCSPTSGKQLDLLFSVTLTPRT


What was measured:
[1] = target: Short5 (hu CDCP1_SH5_ECD (aa 1-361)_SBP) (human) (UniProt Q9H5V8); test: ELISA, SBP-CDCP1-Short5 captured on a streptavidin plate, antibody 0.1 ug in 50 ul, goat anti-mouse IgG-HRP, absorbance 370 nm/492 nm; the same antibody on Medium coating: 0,0420
[2] = target: Short1 (huCDCP1_SH1_ECD aa1-216)_SBP (human) (UniProt Q9H5V8); test: ELISA, SBP-CDCP1-Short1 captured on a streptavidin plate, antibody 0.1 ug in 50 ul, goat anti-mouse IgG-HRP, absorbance 370 nm/492 nm; the same antibody on Medium coating: 0,0420
[3] = target: T1, Soluble extracellular domain (ECD) of …; test: Biacore SPR, immobilized hCDCP1-ECD
[4] = target: Short5 (hu CDCP1_SH5_ECD (aa 1-361)_SBP) (human) (UniProt Q9H5V8); test: ELISA, SBP-CDCP1-Short5 captured on a streptavidin plate, antibody 0.1 ug in 50 ul, goat anti-mouse IgG-HRP, absorbance 370 nm/492 nm; the same antibody on Medium coating: 0,2330
[5] = target: Short1 (huCDCP1_SH1_ECD aa1-216)_SBP (human) (UniProt Q9H5V8); test: ELISA, SBP-CDCP1-Short1 captured on a streptavidin plate, antibody 0.1 ug in 50 ul, goat anti-mouse IgG-HRP, absorbance 370 nm/492 nm; the same antibody on Medium coating: 0,2330

Absorption [1] | Absorption [2] | Kd [3] [nM] | koff [3] [s⁻¹] | kon [3] [M⁻¹ s⁻¹] | Absorption [4] | Absorption [5] | Binder
1.04 | 0.787 | 0.52 | 0.00052 | 990000 | – | – | CUB4 antibody (Deposition No. DSM ACC2551), murine (antibody, V domains shown, Deposited murine monoclonal antibody; also called Mab CUB4; murine CUB4) VH: EVQLVESGGDLVKPGGSLKLSCAASGFTFNSYGMSWVRQTPDKRLEWVATISSGGSYTYYPDSVKGRFTISRDNAKNTLYLQMSSLKSEDTAMYYCARHPDYDGVWFAYWGQGTLVTVSA VL: QIVLTQSPAIMSASPGEKVTMTCSVSSSVFYVHWYQQKSGTSPKRWIYDTSKLASGVPARFSGSGSGTSYSLTISSMEAEDAATYYCQQWNSNPPTFGGGTKLEIK
– | – | 0.47 | 0.00022 | 460000 | 1.49 | 1.3 | Mab CDCP1-015 (antibody, V domains shown, also called CDCP1-0015; Murine CDCP1-015) VH: QVHLKQSGPGLVQPSQSLSITCTVSGFSLTNFGLHWVRQSPGKGLEWLGVIWSGGVTDYNAAFISRLSISKDNSKSQVFFKMNSLQPNDTAIYYCARNYDHDYSMDYWGQGISVSVSS VL: DVVLTQTPLSLPVIIGDQASISCKSTKSLLNSAGFTYLGWYLQKPGQSPQLLIYLVSNRFSGVPDRFSGSGSGTDFTLKISRVEAEDLGVYFCFQSSYLPLTFGSGTKLEIK
